In paper PMC7019770:

Target: PRRSV SD16 virions (PRRSV-2 strain SD16)
Experiment: ELISA-based virus capture assay
Details: plates coated with PRA mutant proteins; detection with PRRSV-convalescent swine serum and HRP-labeled goat anti-swine IgG; parent: est. 1.3; read off a plot

| Substance | response [OD450] |
| --- | --- |
| PRA, C-terminal domain of MYH9 (recombinant, wild type) E1670A | 0.95 |
| PRA, C-terminal domain of MYH9 (recombinant, wild type) E1670A; K1673A; E1679A; I1683A | 1.1 |
| PRA, C-terminal domain of MYH9 (recombinant, wild type) E1679A | 0.99 |
| PRA, C-terminal domain of MYH9 (recombinant, wild type) I1683A | 0.88 |
| PRA, C-terminal domain of MYH9 (recombinant, wild type) K1673A | 0.9 |
